Here are results for 61 molecules from patent US20260274955A1 (JANUX THERAPEUTICS, published 2026).

T1 sequence (VH, as listed by the source, chain 1 of 2): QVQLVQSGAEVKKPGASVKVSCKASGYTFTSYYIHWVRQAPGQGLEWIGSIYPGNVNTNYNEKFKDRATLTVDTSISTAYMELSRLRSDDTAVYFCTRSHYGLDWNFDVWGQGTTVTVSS
T1 sequence (VL, as listed by the source, chain 2 of 2): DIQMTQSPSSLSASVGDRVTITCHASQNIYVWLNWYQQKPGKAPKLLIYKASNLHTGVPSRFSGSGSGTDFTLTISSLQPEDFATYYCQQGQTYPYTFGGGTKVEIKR

This assay concerns the target T1, Anti-CD28 Fab (SEQ ID NOs: 202, 203).
T1 construct: biotinylated and captured on neutravidin coated plates in the phage ELISA
The assay can be described thus: phage binding ELISA, Fab on plate.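 Further: clonal phage supernatant ELISA, wells preincubated with CD28 antigen or blocking buffer only, then bound phage detected using HRP-linked anti-M13 antibody.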 For orientation: An ELISA detects its analyte on a solid surface through an enzyme-linked reagent.
Protocol: After panning, phage infected bacteria were plated out and colonies picked into 96 well blocks. Clonal phage was then amplified and separated from bacterial cells via centrifugation.
Clonal phage were harvested as crude supernatants and screened via standard ELISAs. […] Prior to the addition of clonal phage, wells were incubated with blocking buffer and CD28 antigen or blocking buffer alone. Without washing or aspirating, clonal phage supernatants were then added to the wells and incubated for a short time. Wells were then washed followed by detection of bound phage using a horse radish conjugated anti-M13 antibody. Clonal phage of interest were then sent for sequence analysis.
Take LCAEGFDYSWPMCL [Phage-1086]: the “Anti-CD28 Fab (SEQ ID NOs: 202, 203) signal” value (from here on “Anti-CD28 Fab”) is 1.55. As for WCTAGFSYKLSICL [Phage-1060], the figure is 1.63. The result for LCSAGATYPWPWCM [Phage-1058] reads 1.64. As for TCSAGATYVWPDCF [Phage-1095], the figure is 1.52. As to TCAAGAHWIWPWCE [Phage-1066], the “Anti-CD28 Fab” value was 1.61. As for SCAAGAPYPWPECL [Phage-1071], the figure is 1.59; as for SCAAVFPYPWPPCF [Phage-1030], 1.75. As for TCAAGASFPWPWCL [Phage-1029], the figure is 1.75; as for TCAAGAHYEWPMCY [Phage-1063], 1.61; as for TCAAGAGWQWPMCF [Phage-1067], 1.6. Take TCAAGATYPWPSCL [Phage-1038]: the “Anti-CD28 Fab” value worked out at 1.73. The result for TCAAGATWPWPSCL [Phage-1065] reads 1.61; that for GCAAGFHYPWPLCL [Phage-1033], 1.74; that for LCEEFFHYSWPVCL [Phage-1034], 1.74.

Regarding WCAAGATWPWPLCI [Phage-1042], the “Anti-CD28 Fab” value turned out to be 1.7. As for TCAAGAVWGWPLCF [Phage-1039], the figure is 1.73; as for SCAAGASYPWPQCL [Phage-1023], 1.77; as for TCSAGFSYKWPWCL [Phage-1080], 1.57. For the molecule LCSAGAMYQWPTCL [Phage-1061], the “Anti-CD28 Fab” value worked out at 1.63. The result for LCSAGAMWQWPTCL [Phage-1097] reads 1.51; that for TCTAVFPYEWPRCL [Phage-1078], 1.57; that for TCSAGANYEWPWCF [Phage-1062], 1.62. The result for TCAAGAHYAWPECF [Phage-1040] reads 1.72; that for TCAAGAAWEWPICF [Phage-1091], 1.54; that for SCAAGATFHWPMCF [Phage-1079], 1.57.

As for LCTAGLAYNWPTCL [Phage-1024], the “Anti-CD28 Fab” value stood at 1.77. On to MCAAGAMYAWPTCL [Phage-1028], for which the “Anti-CD28 Fab” value was found to be 1.75. For SCKAGAPYYWPGCF [Phage-1088], the “Anti-CD28 Fab” value was 1.54. On to DCWGDAPYPWRVCL [Phage-1059], for which the “Anti-CD28 Fab” value was found to be 1.64. The result for TCSAVFSYTWSNCF [Phage-1089] reads 1.54; that for TCEAVFIYSWPFCL [Phage-1096], 1.52. As to WCAAGASYPWPWCL [Phage-1077], the “Anti-CD28 Fab” value was determined as 1.58.

With TCAAGATWDWPLCF [Phage-1099], the “Anti-CD28 Fab” value came to 1.51. For SCSAGAAWPWPWCL [Phage-1085], the “Anti-CD28 Fab” value was found to be 1.55. As to TCAAGATYPWPECM [Phage-1082], the “Anti-CD28 Fab” value came out at 1.57.

For the molecule SCSAGAMYPWPMCL [Phage-1093], the “Anti-CD28 Fab” value came out at 1.53. The result for SCSAVFSYAWPTCL [Phage-1064] reads 1.61. Turning to SCAAGATYEWPRCL [Phage-1068], the “Anti-CD28 Fab” value was determined as 1.6. As for SCAAGATYEWPICL [Phage-1074], the figure is 1.59.

Regarding LCAEGADYPWPMCL [Phage-1098], the “Anti-CD28 Fab” value was found to be 1.51. The result for RCRAGFSYNWPYCM [Phage-1041] reads 1.72. For the molecule SCAAGAQYGWPMCL [Phage-1076], the “Anti-CD28 Fab” value is 1.59. In the case of TCSAGFSLQLSICL [Phage-1022], the “Anti-CD28 Fab” value was found to be 1.77. As for LCAAGFNYPWPLCL [Phage-1083], the “Anti-CD28 Fab” value was determined as 1.57. As for TCAAGAMWTWPECL [Phage-1081], the figure is 1.57. On to TCAAGAYYAWPMCL [Phage-1070], for which the “Anti-CD28 Fab” value came out at 1.59.

For the molecule LCAAGAAYPWPMCL [Phage-1073], the “Anti-CD28 Fab” value is 1.59. Regarding MCTAGATYPWPACL [Phage-1084], the “Anti-CD28 Fab” value stood at 1.56.

As for TCSAGATYSWPFCF [Phage-1087], the “Anti-CD28 Fab” value was found to be 1.55. With TCSAGAMYPWPWCV [Phage-1031], the “Anti-CD28 Fab” value is 1.75. The result for MCSAGATYPWPMCL [Phage-1037] reads 1.73; that for MCSAGATYPWPYCL [Phage-1057], 1.64. The result for TCSAGAAYAWPYCL [Phage-1072] reads 1.59; that for TCAAGANYPWPLCL [Phage-1027], 1.75; that for GCAAGANYPWPLCL [Phage-1069], 1.59. On to GCAAGAHYPWPFCL [Phage-1025], for which the “Anti-CD28 Fab” value amounted to 1.76.

TCAAGASWEWPLCF [Phage-1094]: the “Anti-CD28 Fab” value stood at 1.52.

On to TCAAGAVWEWPMCF [Phage-1026], for which the “Anti-CD28 Fab” value is 1.76. As for TCAAGAAWPWPHCL [Phage-1035], the “Anti-CD28 Fab” value came to 1.73. Consider WCAAVFSYSWPLCL [Phage-1032], for which the “Anti-CD28 Fab” value worked out at 1.75. On to TCAAGAMWNWPQCY [Phage-1092], for which the “Anti-CD28 Fab” value was 1.54.
